# Measurements as given in the nanobody polyreactivity screen of Harvey et al. (2022).
# Assay: yeast display, Sf9 membrane polyspecificity reagent, FACS + sequencing; frameworks hold sequencing errors
# Summary of the method: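 Galactose induction of a Saccharomyces cerevisiae BJ5465 synthetic nanobody display library ran 36–48 hours. The cells were then stained for 1 hour at 4 °C with 10% biotinylated, detergent-solubilized Sf9 membrane reagent, pulled down on streptavidin microbeads and FACS-sorted into low and high (top ~1%) gates on expression and reagent-binding fluorescence. Labels for polyreactivity follow the gate of origin.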
row,Sequence,polyreactivity (PSR sort gate)
1,QVQLVESGGGLVQAGGSLRLSCAASGLIFADYVMGWYRQAPGKERELVATINQGGGSTYYADSVKGRFTISRDNAKNTVYLQMNSLIPEDTAVYYCAATWALLYAIFESYDYWGQGTQVTVSS,low polyreactivity
2,QVQLVESGGGLVQAGGSLRLSCAASGLIFAKYAMGGYRQAPGKERELVAAISYSGGSTFYADSVKGRFTISRDNAKNTVYLQMNSLKPEDTAVYYCAARDSRVGYYWFVRKEYYYWGQGTQVTVSS,high polyreactivity
3,QVQLVESGGGLVQAGGSLRLSCAASGLIFANNAMGWYRQAPGKERELVAVISRGGRTYYADSVKGRFTISRDNAKNTVYLQMNSLKPEDTAVYYCAKPVLVGLGSRYDYWGQGTQVTVSS,high polyreactivity
4,QVQLVESGGGLVQAGGSLRLSCAASGLIFARYVMGWSRQAPGKERELVADIDKGGGSTYYADSVKGRFTISRDNAKNTVYLQMNSLKPEDTAVYYCNADFDGWWWDDYWGQGTQVTVSS,high polyreactivity
5,QVQLVESGGGLVQAGGSLRLSCAASGLIFASYAMGWYRQAPGKERELVAAISWSGGSTYYADSVKGRFTISRDNAKNTVYLQMNSLKPEDTAVYYCAAKRYAYGSLDYWGQGTQVTVSS,high polyreactivity
6,QVQLVESGGGLVQAGGSLRLSCAASGLIFATNAMGWYRQAPGKERELVATITRSAGRTYYADSVKGRFTISRDNAKNPVYLQMNSLKPEDTAVYYCAASYWDTEPGYREYDYWGQGTQVTVSS,low polyreactivity
7,QVQLVESGGGLVQAGGSLRLSCAASGLIFATYAMGWYRQAPGKERELVAAISIRGGITYYADSVKGRFTISRDNAKNTVYLQMNSLKPEDTAVYYCAARYSRAGISHRMDYWGQGTQVTVSS,high polyreactivity
8,QVQLVESGGGLVQAGGSLRLSCAASGLIFAVYTMGWYRQAPGKERELVAAITRRSTRTYYADSVKGRFTISRDNAKNTVYLQMNSLKPEDTAVYYCAADRGSSGAAFEYWGQGTQVTVSS,low polyreactivity
9,QVQLVESGGGLVQAGGSLRLSCAASGLIFDKYAMGWYRQAPGKERELVAAITRSSGTTYYADSVKGSFTISRDNAKNTVYLQMNSLKPEDTAVYYCATDVDKSLYDYWGQGTQVTVSS,low polyreactivity
10,QVQLVESGGGLVQAGGSLRLSCAASGLIFDSYDMGWYRQAPGKERELVAAIRRNGGSTYYADSVKGRFTISRDNAKNTVYLQMNSLKPEDTAVYYCAVDNSGYSGVYWVKMDYWGQGTQVTVSS,low polyreactivity
11,QVQLVESGGGLVQAGGSLRLSCAASGLIFESNAMGWYRQAPGKERELVAAITTNGGSTYYADSVKGRFTISRDNAKNTVYFQMNSLKPEVTAVYYCAALGLHQVIEYDYWGQGTQVTVSS,low polyreactivity
12,QVQLVESGGGLVQAGGSLRLSCAASGLIFESYAMGWYRQAPRKERELFAAITRSGARTYYADSVKGRFSISRDNAKNTVYLQMNILKPEDTAVYYCAAAPWYFFDQYFNGISFGYYYWGQGTQLTVSS,high polyreactivity
13,QVQLVESGGGLVQAGGSLRLSCAASGLIFEYYAMGWYRQAPGKERELVAVINWSGASTYYADSVKGRFTITRDYAKNTVYLQMNSLKPEDTAVYYCAAGVLITGLRFDYWGQGTQVTVSS,low polyreactivity
14,QVQLVESGGGLVQAGGSLRLSCAASGLIFFTYAMGWYRQAPGKERELVATISRGGRTKYADSVKGRFTISRDNAKNTVYLQMNSLKPEDTAVSYCAAYLSRSYYAYDYWGQGTQVTVSS,high polyreactivity
15,QVQLVESGGGLVQAGGSLRLSCAASGLIFGDYAMGWYRPAPGKERELVAAITGSVTRTYYADSVKGRFTISRDNAKNTVYLQMNSLKPEDTAVYYCATRVHYIGFYDYDYWGQGTQVTVSS,low polyreactivity
16,QVQLVESGGGLVQAGGSLRLSCAASGLIFGGYAMGWYRQAPGKERELVAAIYWDDGDTYYADSVKGRFTISRDNAKNTVYLQMNSLKTEDTAVYYCNAAGALIFGEGYYVEYDYDYWGQGTQVTVSS,low polyreactivity
17,QVQLVESGGGLVQAGGSLRLSCAASGLIFGGYAMGWYRQAPGKERELVATITSGGSTNYADSVKGRFTISRDNAKNTVYLQMNSLKPEDTAVYYCAAAERQGFPSVYPTYQWDYDYWGQGTQVTVSS,low polyreactivity
18,QVQLVESGGGLVQAGGSLRLSCAASGLIFGNNAMGWYRQAPGKERELVAGIDWSGGSTYYADSVKGRFTISRDNAKNTVDLQMNSLKPEDTAVYYCNAALYVSGHYPNDYWGQGTQVTVSS,low polyreactivity
19,QVQLVESGGGLVQAGGSLRLSCAASGLIFGRNAMGWYRQAPGKERELVAAISYRGGSTYYADSVKGRFTISRDNAKNTVYLQMNSLKPEDTAVYYCNRVWYAWGTGYDYWGQGTQVTVSS,high polyreactivity
20,QVQLVESGGGLVQAGGSLRLSCAASGLIFGRYAMGWYRQAPGKERELVAAITCGTNTNYADSVKGRFTISRDNAKNTVYLQMNSLKPEDTAVYYCGKASGRCSLARGATYSVDYWGQGTQVTVSS,high polyreactivity
21,QVQLVESGGGLVQAGGSLRLSCAASGLIFGSYAMGWSRQAPGKERELVAAISRSGGSTYYADSVKGRFTISRDNAKNTVYLQMNSLKPEDTAVYYCAARGYPLGIGRIKRNYWGQGTQVTVAS,high polyreactivity
22,QVQLVESGGGLVQAGGSLRLSCAASGLIFGSYAMGWYRQAPGKEMELVAAISWSGGSTNYADSVKGRFTISRDNSKNTVDLQMNSLKPEDTAVYYCAARGYPLGIGRIKRNYWGQGTQVTVSS,high polyreactivity

row,Sequence,polyreactivity (PSR sort gate)
1,QVQLVESGGGLVQAGGSLRLSCAASGLIFGSYVMGWYSQAPGKERELVAAISTSGGRTYYADSVKGRFTISRDNATNTVYLQMNSLKPEDTAVYFCAASRWHGYNYWGQGTQVTVSS,high polyreactivity
2,QVQLVESGGGLVQAGGSLRLSCAASGLIFGVNAMGWYRQAPGKERELVAAISRDSDTNYADSVKGRFTISRDNAKNTDYLQMNSLKPEDTAVYYCNAYSEWPVPSPPRSQSLDYWGQGTQVTVSS,low polyreactivity
3,QVQLVESGGGLVQAGGSLRLSCAASGLIFGWYAMGWYRQAPGKERELVAGISGSGGITYYADSVKGRFTISRDNAKNTVYLQMNSLKPEDTAVYYCAARPGYVHIDFDYWGQGTQVTVSS,low polyreactivity
4,QVQLVESGGGLVQAGGSLRLSCAASGLIFGYNAMGWYRQAPGKEREFVAGISVIDGRTYYADSVKGRFTISRDNAKNTVYLQMNSLIPEDTAVYYCAADRWYKYYFLTYGYWGQGTQVTVSS,low polyreactivity
5,QVQLVESGGGLVQAGGSLRLSCAASGLIFGYNAMGWYRQAPGKEREFVAGISVIDGRTYYADSVKGRFTISRDNAKNTVYLQMNSLKPEDTAVYYCAADRWYKYYFLTYGYWGQGTQVTVSS,low polyreactivity
6,QVQLVESGGGLVQAGGSLRLSCAASGLIFGYNAMGWYRQAPGKERELVAAISSSGGSTSYADSVKGRFTISRDNAKNTVYLQMNSLKPEDTAVYYCAAKPGRYADYDYNSWGQGTQVTVSS,low polyreactivity
7,QVQLVESGGGLVQAGGSLRLSCAASGLIFGYNAMGWYRQAPGKERELVAAISWSGGRTYYADSVKGRFTISRDNAKNTVYLQMNSLKPEDTAVYYCAAVVRHSYFRDDHWGQGTQVTVSS,high polyreactivity
8,QVQLVESGGGLVQAGGSLRLSCAASGLIFGYYAMGWYRQAPGKERELVAAISSSGTRTYYADSVKGRFTISRDNAMNTVYLQMNSLKPEDTAVYYCNADSYGSRYEYWGQGTQVTVSS,high polyreactivity
9,QVQLVESGGGLVQAGGSLRLSCAASGLIFHYYAMGWYRQAPGKERELVAAISSGGSTNYADSVKGRFTISRDNAKNTVYLQMNSLKPLDTAVYYCAARSGARRGNVYVYYEYYYWGQGTQVTVSS,low polyreactivity
10,QVQLVESGGGLVQAGGSLRLSCAASGLIFITYAMGWYIQAPGKERELVATITLRGGSTYYADSVKGRFTISRDNAKNTVYLQMNSLKPEDTAVYYCAADVGYWGRSRGYPSDDYDYWGQGTQVTVSS,low polyreactivity
11,QVQLVESGGGLVQAGGSLRLSCAASGLIFKFYAMGWYRQAPGKERELVARISSCGGSTYYADSVKGRFTMSRDNAKNTVYLQMNSLKPEDTAVYYCAAGDYYGDRYARSSIFSYYYWGQGTQVTVSS,high polyreactivity
12,QVQLVESGGGLVQAGGSLRLSCAASGLIFKSYAMGWYRQAPGKERELVAAITWSGGRTYYADSVKGRFTISRDNAKNTVYLQMNSLKPEDTAVYYCAGREYLPPYYYWGQGTQVTVSS,high polyreactivity
13,QVQLVESGGGLVQAGGSLRLSCAASGLIFKYYAMGWYRPAPGKERELVAAITGRGGSTYYADSVKGRFTISRDNAMNTVYLQMNSLKPEDTAVYYCARRRTYSFNPVTYDWGQGTQVTVSS,high polyreactivity
14,QVQLVESGGGLVQAGGSLRLSCAASGLIFLGYAMGWYRQAPGKERELVASIRTGGSTSYADSVKGRFTISRDNAKNTVYLQMNSLKPEDTAVYYCNARDYASGTEGDYWGQGTQVTVSS,low polyreactivity
15,QVQLVESGGGLVQAGGSLRLSCAASGLIFLYNAMGWYRQAPGKERELVAAISRSGGSTYYADSVKGRFTISRDNAKNTVYLQMNSLKPEDTAVYYCNARWPLGVSRGGMGYWGQGTQVTVSS,high polyreactivity
16,QVQLVESGGGLVQAGGSLRLSCAASGLIFNEYAMGWYRQAPGKERELVAAISWSDGGTSYADSVKGRFTISRDNAKNTVYLQMNSLKPEDTAVYYCAKGPRGAHRTHGAYVEMEYWGQGTQVTVSS,low polyreactivity
17,QVQLVESGGGLVQAGGSLRLSCAASGLIFNKNSMGWYRQAPGKERELVASNTTTGARTYYADSVKGRFTISRDNAKNTVYLQMNSLKPEDTAFYYCASVHWGWRSITGGVGYDSWGQGTQVTVSS,high polyreactivity
18,QVQLVESGGGLVQAGGSLRLSCAASGLIFNNNAMGWYRQAPGKERELVAAISYRGGSTYYADSVKGRFTISRDNAKNTVYLQMNSLKPEDTAVYYCAARKISKYDYWGQGTQVTVSS,high polyreactivity
19,QVQLVESGGGLVQAGGSLRLSCAASGLIFNRYTMGWYRQAPGKERELVAAINRSGGNTYYADSVKGRFTISRDNAKNTVYLQMNSLKPEDTAVYYCNADYFSRTGYKYDYWGQGTQVTVSS,high polyreactivity
20,QVQLVESGGGLVQAGGSLRLSCAASGLIFNVNVMGWYRQAPGKERELVAAIDYSGGSTYYADSVKGRFTISRDNAKNTVFLQMNSLKPEDTAVYYCSADDAAWPYSWWGFDYWGQGTQVTVSS,low polyreactivity
21,QVQLVESGGGLVQAGGSLRLSCAASGLIFPLYAMGWYRHAPGKERELVAAITSSGGSTYYADSVKGRFTISRDNAKNTVYLQMNSLKPEDTAVYYCAADYSVYWLDYGYWGQGTQVTVSS,low polyreactivity
